Changes are numbered by the printed parent chain. Names may count otherwise. “Also recorded” adds a separate entry of the source. Non-standard residues stand in square brackets, D forms with d. Residues, ends and D or L forms follow the SMILES beside them. *: point of attachment. Nle = CCCC[C@H](N)C(=O)O; Cbz = O=C(OCc1ccccc1)*; CH2F = FC*
B1: wild-type Pellino-2: wild-type Pellino-2 polypeptide expressed in COS cells; species not stated at the result (protein, UniProt Q9HAT8 1-420, looked up)
E3 ubiquitin-protein ligase …: MFSPGQEEHCAPNKEPVKYGELVVLGYNGALPNGDRGRRKSRFALYKRPKANGVKPSTVHVISTPQASKAISCKGQHSISYTLSRNQTVVVEYTHDKDTDMFQVGRSTESPIDFVVTDTISGSQNTDEAQITQSTISRFACRIVCDRNEPYTARIFAAGFDSSKNIFLGEKAAKWKNPDGHMDGLTTNGVLVMHPRGGFTEESQPGVWREISVCGDVYTLRETRSAQQRGKLVESETNVLQDGSLIDLCGATLLWRTADGLFHTPTQKHIEALRQEINAARPQCPVGLNTLAFPSINRKEVVEEKQPWAYLSCGHVHGYHNWGHRSDTEANERECPMCRTVGPYVPLWLGCEAGFYVDAGPPTHAFTPCGHVCSEKSAKYWSQIPLPHGTHAFHAACPFCATQLVGEQNCIKLIFQGPID
B2: Y154A-FLAG: murine Pellino-1-FLAG, Tyr to Ala substitution at residue 154 (protein, UniProt Q8C669 1-418, looked up, variant Y154A)
E3 ubiquitin-protein ligase …: MFSPDQENHPSKAPVKYGELIVLGYNGSLPNGDRGRRKSRFALFKRPKANGVKPSTVHIACTPQAAKAISNKDQHSISYTLSRAQTVVVEYTHDSNTDMFQIGRSTESPIDFVVTDTVPGSQSNSDTQSVQSTISRFACRIICERSPPFTARIAAAGFDSSKNIFLGEKAAKWKTSDGQMDGLTTNGVLVMHPRNGFTEDSKPGIWREISVCGNVFSLRETRSAQQRGKMVEIETNQLQDGSLIDLCGATLLWRTAEGLSHTPTVKHLEALRQEINAARPQCPVGFNTLAFPSMKRKDVVDEKQPWVYLNCGHVHGYHNWGNKEERDGKDRECPMCRSVGPYVPLWLGCEAGFYVDAGPPTHAFSPCGHVCSEKTTAYWSQIPLPHGTHTFHAACPFCAHQLAGEQGYIRLIFQGPLD
modifications: FLAG tag
B3: F158A-FLAG: murine Pellino-1-FLAG, Phe to Ala substitution at residue 158 (protein, UniProt Q8C669 1-418, looked up, variant F158A)
E3 ubiquitin-protein ligase …: B2 E3 ubiquitin-protein ligase … with A154Y, F158A
modifications: FLAG tag
B4: F165L-FLAG: murine Pellino-1-FLAG, Phe to Leu substitution at residue 165 (protein, UniProt Q8C669 1-418, looked up, variant F165L)
E3 ubiquitin-protein ligase …: B2 E3 ubiquitin-protein ligase … with A154Y, F165L
modifications: FLAG tag
B5: dN50-FLAG: murine Pellino-1-FLAG, N-terminal 50 amino acids deleted (protein, UniProt Q8C669 51-418, looked up, fragment)
chain: GVKPSTVHIACTPQAAKAISNKDQHSISYTLSRAQTVVVEYTHDSNTDMFQIGRSTESPIDFVVTDTVPGSQSNSDTQSVQSTISRFACRIICERSPPFTARIYAAGFDSSKNIFLGEKAAKWKTSDGQMDGLTTNGVLVMHPRNGFTEDSKPGIWREISVCGNVFSLRETRSAQQRGKMVEIETNQLQDGSLIDLCGATLLWRTAEGLSHTPTVKHLEALRQEINAARPQCPVGFNTLAFPSMKRKDVVDEKQPWVYLNCGHVHGYHNWGNKEERDGKDRECPMCRSVGPYVPLWLGCEAGFYVDAGPPTHAFSPCGHVCSEKTTAYWSQIPLPHGTHTFHAACPFCAHQLAGEQGYIRLIFQGPLD
modifications: FLAG tag
notes: murine Pellino-1-FLAG, N-terminal 50 amino acids deleted
B6: dN230-FLAG: murine Pellino-1-FLAG, N-terminal 230 amino acids deleted (protein, UniProt Q8C669 231-418, looked up, fragment)
chain: VEIETNQLQDGSLIDLCGATLLWRTAEGLSHTPTVKHLEALRQEINAARPQCPVGFNTLAFPSMKRKDVVDEKQPWVYLNCGHVHGYHNWGNKEERDGKDRECPMCRSVGPYVPLWLGCEAGFYVDAGPPTHAFSPCGHVCSEKTTAYWSQIPLPHGTHTFHAACPFCAHQLAGEQGYIRLIFQGPLD
modifications: FLAG tag
notes: murine Pellino-1-FLAG, N-terminal 230 amino acids deleted
B7: dN180-FLAG: murine Pellino-1-FLAG, N-terminal 180 amino acids deleted (protein, UniProt Q8C669 181-418, looked up, fragment)
chain: DGLTTNGVLVMHPRNGFTEDSKPGIWREISVCGNVFSLRETRSAQQRGKMVEIETNQLQDGSLIDLCGATLLWRTAEGLSHTPTVKHLEALRQEINAARPQCPVGFNTLAFPSMKRKDVVDEKQPWVYLNCGHVHGYHNWGNKEERDGKDRECPMCRSVGPYVPLWLGCEAGFYVDAGPPTHAFSPCGHVCSEKTTAYWSQIPLPHGTHTFHAACPFCAHQLAGEQGYIRLIFQGPLD
modifications: FLAG tag
notes: murine Pellino-1-FLAG, N-terminal 180 amino acids deleted
B8: 1–250: murine Pellino-1, only amino acids 1–250 present (protein, UniProt Q8C669 1-250, looked up, fragment)
chain: MFSPDQENHPSKAPVKYGELIVLGYNGSLPNGDRGRRKSRFALFKRPKANGVKPSTVHIACTPQAAKAISNKDQHSISYTLSRAQTVVVEYTHDSNTDMFQIGRSTESPIDFVVTDTVPGSQSNSDTQSVQSTISRFACRIICERSPPFTARIYAAGFDSSKNIFLGEKAAKWKTSDGQMDGLTTNGVLVMHPRNGFTEDSKPGIWREISVCGNVFSLRETRSAQQRGKMVEIETNQLQDGSLIDLCGAT
B9: dN99-FLAG: murine Pellino-1-FLAG, N-terminal 99 amino acids deleted (protein, UniProt Q8C669 100-418, looked up, fragment)
chain: FQIGRSTESPIDFVVTDTVPGSQSNSDTQSVQSTISRFACRIICERSPPFTARIYAAGFDSSKNIFLGEKAAKWKTSDGQMDGLTTNGVLVMHPRNGFTEDSKPGIWREISVCGNVFSLRETRSAQQRGKMVEIETNQLQDGSLIDLCGATLLWRTAEGLSHTPTVKHLEALRQEINAARPQCPVGFNTLAFPSMKRKDVVDEKQPWVYLNCGHVHGYHNWGNKEERDGKDRECPMCRSVGPYVPLWLGCEAGFYVDAGPPTHAFSPCGHVCSEKTTAYWSQIPLPHGTHTFHAACPFCAHQLAGEQGYIRLIFQGPLD
modifications: FLAG tag
notes: murine Pellino-1-FLAG, N-terminal 99 amino acids deleted
B10: 1–350: murine Pellino-1, only amino acids 1–350 present (protein, UniProt Q8C669 1-350, looked up, fragment)
chain: MFSPDQENHPSKAPVKYGELIVLGYNGSLPNGDRGRRKSRFALFKRPKANGVKPSTVHIACTPQAAKAISNKDQHSISYTLSRAQTVVVEYTHDSNTDMFQIGRSTESPIDFVVTDTVPGSQSNSDTQSVQSTISRFACRIICERSPPFTARIYAAGFDSSKNIFLGEKAAKWKTSDGQMDGLTTNGVLVMHPRNGFTEDSKPGIWREISVCGNVFSLRETRSAQQRGKMVEIETNQLQDGSLIDLCGATLLWRTAEGLSHTPTVKHLEALRQEINAARPQCPVGFNTLAFPSMKRKDVVDEKQPWVYLNCGHVHGYHNWGNKEERDGKDRECPMCRSVGPYVPLWLGCE

tested on: NF-kB-dependent reporter gene; test: NF-kB-dependent reporter gene (luciferase) assay in transfected COS cells; format: cell-based, monkey; settings: COS cells transfected with high concentrations of expressing construct
Text: The murine Pellino-1 coding sequence DNA was fused, in frame at the 3′ end, to DNA encoding the FLAG epitope, followed by an in-frame stop codon. This construct was cloned into the mammalian expression vector pDC304 (identical to pDC302, described in U.S. Pat. No. 5,599,905, issued Feb. 4, 1997, except that the early splice region, consisting of splice donor and acceptor sites of the SV40 viral element, has been removed); and transfected into an IL-1-responsive line of COS-7 cells by the DEAE-dextran method.
In order to assay the effect of the Pellino-1-FLAG polypeptide and other forms of Pellino polypeptides on reporter gene activity, a method essentially as described in Born et al., 1998, J. Biol. Cheni. 273: 29445–29450 (which is incorporated by reference herein) can be used. As one example of this method, Cos7 cells were transiently transfected by the DEAE-dextran method as described (Cosman et al., 1984, Nature 312: 768–771, which is incorporated by reference herein), using 150 ng of the Pellino polypeptide expression construct and 700 ng of the reporter plasmid per 45,000 cells. Two days post-transfection, cells were stimulated with 10 ng/ml IL-1 or 40 ng/ml IL-18 (PeproTech, Inc.) for 4 hours. Cells were lysed and luciferase activity assessed using Reporter Lysis Buffer and Luciferase Assay Reagent (Promega Corp.). IL-8 promoter-reporter and NFkB-dependent reporter constructs may be used as reporter plasmids. Alternatively, the effect of Pellino polypeptide expression may be assayed in COS-1 cells. In an alternative preferred method, COS7 cells were grown in 12-well dishes as described above. The cells were transiently transfected with Pellino test plasmid, 50 ng of reporter plasmid DNA, and empty vector, as required, to a total of 1 micrograms of total DNA per well. After 24 hours, stimulating agents were added in a small amount (less than 0.5% final volume) of medium or dimethyl sulfoxide, and the cells were re-incubated for 5 hours. Cells were lysed in luciferase Reporter Lysis Buffer (Promega, Madison Wis., 0.25 ml per well) and luciferase activity was measured in a EG & G/Berthold luminometer after addition of Luciferase Assay Reagent (Promega) according to the supplier's instructions. All results were normalized to total protein content of the lysates as measured using the micro-BCA assay (Pierce, Rockford, Ill).

Molecule | NFkB-dependent reporter gene activity
B1 | inhibitory effect

same assay, conditions: NF-kB-dependent reporter gene activity; form of murine Pellino-1 expressed in COS cells

Molecule | Effect on Reporter Gene
B2 | Stimulatory
B3 | Slightly
B4 | Stimulatory
B5 | Inhibitory
B6 | inactive
B7 | inactive
B8 | inactive
B9 | Inhibitory
B10 | inactive

tested on: Pellino-1 Cleavage and Relocation; test: Effect of protease and other inhibitors on PMA-induced Pellino-1 cleavage and relocation in COS7 cells; format: cell-based, monkey; settings: inhibitor 10 microM; COS7 cells treated with PMA
Description: In an effort to determine which protease might be involved in the regulation of Pellino-1 cleavage, COS7 cells transfected with a Pellino-1-expressing construct were treated with PMA together with inhibitors of different classes of proteinases as shown in Table 3 below.

Molecule | Effect on Pellino-1 Cleavage and Relocation
CC(C)C[C@@H](C=O)NC(=O)[C@H](CC(C)C)NC(=O)[C@H](CC(C)C)NC(=O)OCc1ccccc1 [MG132] (Cbz-Leu-Leu-Leu-aldehyde) | none

same assay, conditions: inhibitor 20 microM; COS7 cells treated with PMA

Molecule | Effect on Pellino-1 Cleavage and Relocation
CCCC[C@@H](C=O)NC(=O)[C@H](CC(C)C)NC(=O)[C@H](CC(C)C)NC(C)=O [ALLN] (Ac-Leu-Leu-[Nle]-aldehyde) | none
CC(=O)N[C@@H](CSC(=O)[C@]1([C@@H](O)C(C)C)NC(=O)[C@H](C)[C@@H]1O)C(=O)O [Lactacystin] | none
Cc1ccc(S(=O)(=O)N[C@@H](Cc2ccccc2)C(=O)CCl)cc1 [TPCK] | inhibition
COC(=O)CC[C@H](NC(=O)[C@H](CC(=O)OC)NC(=O)OCc1ccccc1)C(=O)N[C@H](C(=O)N[C@@H](CC(=O)OC)C(=O)CF)C(C)C [Z-DEVD-FMK] | none
COC(=O)C[C@H](NC(=O)[C@H](C)NC(=O)[C@@H](NC(=O)OCc1ccccc1)C(C)C)C(=O)CF [Z-VAD-FMK] (Cbz-Val-Ala-Asp(OMe)-CH2F) | none

same assay, conditions: inhibitor 40 microM; COS7 cells treated with PMA

Molecule | Effect on Pellino-1 Cleavage and Relocation
C[C@@H]1C[C@@H]([C@H](O)CC2CC(=O)NC(=O)C2)C(=O)[C@@H](C)C1 [Cycloheximide] | inhibition

same assay, conditions: treatment of FLAG-Pellino-1-transfected COS7 cells with the inhibitor

Molecule | PMA-induced Pellino-1 cleavage (and relocation)
C[C@@H]1C[C@@H]([C@H](O)CC2CC(=O)NC(=O)C2)C(=O)[C@@H](C)C1 [Cycloheximide] | largely prevented; also recorded: completely prevented

Reference: patent US7169891B2, “Human pellino polypeptides” (Immunex Corporation, priority 2000, dated 2007)
